Data: the DeepSol protein solubility set

Assay: soluble on expression in E. coli; label from the status in PepcDB or PDB records

Sequence | soluble on expression in E. coli
MNYTLKNDHLNVVVDTFGAEMHSIQHDDIEYLWQADAKFWGRHAPVLFPIVGKLKNGEYRYNDKTYKMGGHGFARDNDFELIKKSADELVFELRDNEDSLNHYPFHFVFRVSYKLVDNKIRVRYEVKNEDEKFMSFGVGAHPAFNVPLKNGTFEDYQLTISPDEKRTFIPLDPPSGTLKLDERVESQVSQLPLTRALFDKDALVYTSSKEMKVSLTNKLDDHGVSLTWKNMPYFGLEHHHHHH | not soluble
MGHHHHHHSHSSPEREITLVNLKKDAKYGLGFQIIGGEKMGRLDLGIFISSVAPGGPADLDGCLKPGDRLISVNSVSLEGVSHHAAIEILQNAPEDVTLVISQPKEKISKVPSTPVHLTNEMKNYMKKSSYMQDSAIDSSSKDHHWSRGTLRHISENSFGPSGGLREGSLSSQDSRTESASLSQSQVNGFFASHLGDQ | not soluble
MEKQWWKESVVYQIYPRSFMDSNGDGIGDLRGIISKLDYLKELGIDVIWLSPVYESPNDDNGYDISDYCKIMNEFGTMEDWDELLHEMHERNMKLMMDLVVNHTSDEHNWFIESRKSKDNKYRDYYIWRPGKEGKEPNNWGAAFSGSAWQYDEMTDEYYLHLFSKKQPDLNWDNEKVRQDVYEMMKFWLEKGIDGFRMDVINFISKEEGLPTVETEEEGYVSGHKHFMNGPNIHKYLHEMNEEVLSHYDIMTVGEMPGVTTEEAKLYTGEERKELQMVFQFEHMDLDSGEGGKWDVKPCSLLTLKENLTKWQKALEHTGWNSLYWNNHDQPRVVSRFGNDGMYRIESAKMLATVLHMMKGTPYIYQGEEIGMTNVRFESIDEYRDIETLNMYKEKVMERGEDIEKVMQSIYIKGRDNARTPMQWDDQNHAGFTTGEPWITVNPNYKEINVKQAIQNKDSIFYYYKKLIELRKNNEIVVYGSYDLILENNPSIFAYVRTYGVEKLLVIANFTAEECIFELPEDISYSEVELLIHNYDVENGPIENITLRPYEAMVFKLK | soluble
MSMENFAQLLEESFTLQEMNPGEVITAEVVAIDQNFVTVNAGLKSESLIDVAEFKNAQGEIEVKVGDFVTVTIESVENGFGETKLSREKAKRAADWIALEEAMENGDILSGIINGKVKGGLTVMISSIRAFLPGSLVDVRPVKDTSHFEGKEIEFKVIKLDKKRNNVVVSRRAVLEATLGEERKALLENLQEGSVIKGIVKNITDYGAFVDLGGIDGLLHITDLAWRRVKHPSEVLEVGQEVEAKVLKFDQEKQRVSLGMKQLGEDPWSGLTRRYPQGTRLFGKVSNLTDYGAFVEIEQGIEGLVHVSEMDWTNKNVHPSKVVQLGDEVEVMILEIDEGRRRISLGMKQCQANPWEEFAANHNKGDKISGAVKSITDFGVFVGLPGGIDGLVHLSDLSWTESGEEAVRKYKKGEEVEAVVLAIDVEKERISLGIKQLEGDPFGNFISVNDKGSLVKGSVKSVDAKGAVIALSDEVEGYLPASEFAADRVEDLTTKLKEGDEVEAVIVTVDRKNRSIKLSVKAKDAKESREALNSVNAAANANAGTTSLGDLLKAKLSGEQELEHHHHHH | soluble
MGSDKIHHHHHHENLYFQGMTQLELLLERIIDRVNVNLRHQKFDVGDYVRRQTPHLHYSKFYAFYGLSADDPVHFHFKNSSLAGSYLLGRVNVLHSALYKSDIRGDELKRKGQHFVCDGKMIPLHDDEVITIKDSFLNKTLVHSNSHDPESPEEFTIRNTVAMPYANIHGSLTEGSFIGSFATVDLSTIHNSVVRYFSYVQTGELVGKCVEPGQIWIKSGDELEFHYSFDKAILDKYISQEAGSCPTGVLMEFVEVRQEDFEEVFASGHMASGAGSASGASVSGYAVIKGDTVIGENVLVSQRAYLDNAWMGKGSNAQENCYIINSRLERNCVTAHGGKIINAHLGDMIFTGFNSFLQGSESSPLKIGDGCVVMPHTIIDLEEPLEIPAGHLVWGYIRNKADLAAHSISFEEFAKVDGEVTMGRMTFRGKGGPFLDSFKKRIKRILSENGAFFDGSEGTGHAQKGKNFTFNIIQPYQDGDPRGMYPTILIQPNNGS | soluble
MGSDKIHHHHHHMEKVKAILFDKDGTLMDFHSIWIKVAEELVAEYIKLYQLPQSMQPTLLKEIGVDGVFVHPRSAIAAGTSLDVAKGLCKYITSSKEEEMHEWVSEKLFALMYEHRSYMKMTADLPRILQSLKDRGFILGVVTADDFAPTELFLKQYQLETFFDYVVASDTFAAQKPDKRIIESFCERFHLKACEVAVVGDTPTDLYLAKNGDCYAIGVLSGTGNRQTLEPLADLVVQSVGDFISHSGEFVWEKGKSNV | not soluble
FVKSGWLLRQSTILKRWKKNWFDLWSDGHLIYYDDQTRQSIEDKVHMPVDCINIRTGHECRDIQPPDGKPRDCLLQIVCRDGKTISLCAESTDDCLAWKFTLQDSRT | soluble
GIDPFTAPGQLECETAIAALNSCLRDLDQASLAAVSQQLAPREGISQEALHTQMLTAVQEISHLIEPLASAARAEASQLGHKVSQMAQYFEPLTLAAVGAASKTLSHPQQMALLDQTKTLAESALQLLYTAKEAGGNPKQAAHTQEALEEAVQMMTEAVEDLTTTLNEAASAAG | soluble
MGSDKIHHHHHHMASHLTDGVIHATTRAASLHWCIAQATKTDGALNGDGYLLKRDEDTLLFALADGVGSGQLAHDASSACLRILAASDDMDLPSLFETCHTQLTSTRGAALGLVKFFLGQGFLEWAAVGDIEGCIYPTEPTSSRTISMMQRGGTLGHYFTGITPQQHAWPPTSMLALCTDGVSRKFRERHPNDQAPREFADSCFNDFGRDNDDRTLATFSWTQEGT | not soluble
SMKEPSQQRVKRWGFGMDEALKDPVGREQFLKFLESEFSSENLRFWLAVEDLKKRPIKEVPSRVQEIWQEFLAPGAPSAINLDSKSYDKTTHNVKEPGRYTFEDAQEHIYKLMKSDSYPRFIRSSAYQELLQAKKKSGNSMDRRTS | soluble
MYRKGAQAERELIKLLEKHGFAVVRSAGSKKVDLVAGNGKKYLCIEVKVTKKDHLYVGKRDMGRLIEFSRRFGGIPVLAVKFLNVGWRFIEVSPKIEKFVFTPSSGVSLEVLLGIQKTLEGKS | soluble
MASWSHPQFEKGASTSLYKKAGRMSKFTWKELIQLGSPSKAYESSLACIAHIDMNAFFAQVEQMRCGLSKEDPVVCVQWNSIIAVSYAARKYGISRMDTIQEALKKCSNLIPIHTAVFKKGEDFWQYHDGCGSWVQDPAKQISVEDHKVSLEPYRRESRKALKIFKSACDLVERASIDEVFLDLGRICFNMLMFDNEYELTGDLKLKDALSNIREAFIGGNYDINSHLPLIPEKIKSLKFEGDVFNPEGRDLITDWDDVILALGSQVCKGIRDSIKDILGYTTSCGLSSTKNVCKLASNYKKPDAQTIVKNDCLLDFLDCGKFEITSFWTLGGVLGKELIDVLDLPHENSIKHIRETWPDNAGQLKEFLDAKVKQSDYDRSTSNIDPLKTADLAEKLFKLSRGRYGLPLSSRPVVKSMMSNKNLRGKSCNSIVDCISWLEVFCAELTSRIQDLEQEYNKIVIPRTVSISLKTKSYEVYRKSGPVAYKGINFQSHELLKVGIKFVTDLDIKGKNKSYYPLTKLSMTITNFDIIDLQKTVVDMFGNQVHTFKSSAG | soluble
GMEAHMKSHNLLEAVRFDDQRFVMELVHESENFKIVSFTFKAGQELPVHSHNIEGELNIVVLEGEGEFVGDGDAVIPAPRGAVLVAPISTPHGVRAVTDMKVLVTIAPPI | soluble
MGSDKIHHHHHHSCGNKDKGTTVPEGNPSDREAMLKNVADNIVIPANAKFEIKLDNMIAKSDVFRNNPTVTTLSEYRIAWAEAYIEWQKIGIFDFGPAADVALNSYMNVYPANVSNINANILSGNANLEVFESYSAQGFPAIDYLINGSADTDDDIVALYVTGEDADKRKAYLLRLTNQMHAKFEAVNAAWKGDYRNTFVSSTGTGLNASTSVMVNGIVFYYERFIRSGKFGIPSGAMTGTPLNASVEAYYKKDIGKILAQTAQQAFVDYFNGKGVTTGIEGPSLKTYLNALDAKDATTKQPLSEIINNQFTVVDSKLNVLSDNLSNEVLTNKAAMVAVYNEMQKAVRMLKVDMTSALSVTITYTDNDGD | not soluble
MGQKKYVELSKDIFIFSYLCGGINFTDIANLTQENIVNGRLHYIRQKTGKLIKIGIPQEAMQIIKKYTDESNGYLFPILNVKVHKTALQKQNRIHKIRGKVNDILKTLGKRLGIEANITTYVARHSFASVLKKSGVNIALISEALGHSDLATTQIYLDSFDNEQVDEAMKNLLEHHHHHH | soluble
MSLKVLIKTDLVLGAPKTLRDVYIGIDEGQIKVISKEKPEDYDYAEYVIGGKNRVVAPGFVTTHSFLYLYPFRYRVFSGKANAFQLMSTLTPNDIYYFSLMGAYHLLKTGVTTVVTSGPNLDMIARAISEVGLRPVLAVGVDCPDSKEDWEREFTTLYNRWSSKNENRVILRLCSNEYSKEVFELSQQYDFPVLLERFVSLENISGNPINVIGLGGGARKDLDIIKQKGFHLASTPSYEVSQFPLSQYKPSISLDLSPTFDIRHEVSTSITRLILTPEEALNAMTIWGLLQLKYNDRGVLENGKVADLVIFEVKEPPTFPLDYESPYESIVFNLSTPETVLVSGEAILDGGVPLNIGIKHIEKAIERLEDIDKKVTRPARYMEKDEGHHHHHH | not soluble
MSNKTSIEGLSALLHTLMLIPQHRWITVRELQQQLALLDIHRTTRSIKRYLDEVIVEVFNVECDSMSMPHVYRKTSEQLLKLNKQEMLYWQLTNKYLLPLVPDALNYGQGSSSERDKPLPHKASAHSKEQEWLAKVHVVLPTIREWNDEQRQVLNAVHTALLHNRMLKISSQVLQQEKALIEPLGLSVQCDALLLLFRLSGQHTIRTLALPLIDEATVSTFSFTYPTDFNLERFMREHDGVSAS | not soluble
MSYYHHHHHHDYDIPTTENLYFQGAMGSMNTRNTRSKQRAPCGVSSSVKPRLDLIEQAPNPVYDRHPACITLPERTCRHPLTDLEANEQLGRCEDSVKNRFDRVIPFLQVVAGIPLGLDHVTRVQELAQSSLGHTLPEELLKDNWISGHNLKGIFGYATAKALTAATEQFSRKIMSEKDDSASAIGFFLDCGFHAVDISPCADGRLKGLLPYILRLPLTAFTYRKAYAGSMFDIEDDLAQWEKNELRRYREGVPNTADQPTRYLKIAVYHFSTSDPTHSGCAAHGSNDRAALEAALTQLMKFREAVENAHCCGASIDILLIGVDTDTDAIRVHIPDSKGFLNPYRYVDNTVTYAQTLHLAPDEARVIIHEAILNANRSDGWAKGNGVASEGMRRFIGQLLINNLSQIDYVVNRHGGRYPPNDIGHAERYISVGDGFDEVQIRNLAYYAHLDTVEENAIDVDVGITIFTKLNLSRGLPIPIAIHYRYDPNVPGSRERTVVKARRIYNAIKERFSSLDEQNLLQFRLSVQAQDIGSPIEEVASA | soluble
MARARARPGAVMSISGGLVRRRAEGRPLPAASAMSTVTLHRVLRASPERVYRAFLDAAALSKWLPPHGFTNTVEHLDARVGGTFRMAFTQFGSGQRHAFGGTYRELVPNALLRYDDVFDDPSLPGTLLTTVRLLPLPCGTDLHVVQEGIPEQIPLHACYLGWQESLTLLALLVEAQRAELEHHHHHH | not soluble
MSTINFANREINFKIVYYGPGLSGKTTNLKWIYSKVPEGRKGEMVSLATEDERTLFFDFLPLDIGEVKGFKTRFHLYTVPGQVFYNASRKLILRGVDGIVFVADSAPNRLRANAESMRNMRENLAEYGLTLDDVPIVIQVNKRDLPDALPVEMVRAVVDPEGKFPVLEAVATEGKGVFETLKEVSRLVLARVAGGS | soluble
